Measurements from patent US20230144436A1, “MUSCLE TARGETING COMPLEXES AND USES THEREOF FOR TREATING MYOTONIC DYSTROPHY” (Dyne Therapeutics, Inc., priority 2020, published 2023).

Target: human transferrin receptor 1 (human) (UniProt P02786)
Experiment: Carterra LSA SPR array, IgG captured on anti-IgG lawn, hTfR1 as analyte, 25 C, 1:1 Langmuir fit

Sequence of human transferrin receptor 1 (human) (P02786 89-760 limits assumed): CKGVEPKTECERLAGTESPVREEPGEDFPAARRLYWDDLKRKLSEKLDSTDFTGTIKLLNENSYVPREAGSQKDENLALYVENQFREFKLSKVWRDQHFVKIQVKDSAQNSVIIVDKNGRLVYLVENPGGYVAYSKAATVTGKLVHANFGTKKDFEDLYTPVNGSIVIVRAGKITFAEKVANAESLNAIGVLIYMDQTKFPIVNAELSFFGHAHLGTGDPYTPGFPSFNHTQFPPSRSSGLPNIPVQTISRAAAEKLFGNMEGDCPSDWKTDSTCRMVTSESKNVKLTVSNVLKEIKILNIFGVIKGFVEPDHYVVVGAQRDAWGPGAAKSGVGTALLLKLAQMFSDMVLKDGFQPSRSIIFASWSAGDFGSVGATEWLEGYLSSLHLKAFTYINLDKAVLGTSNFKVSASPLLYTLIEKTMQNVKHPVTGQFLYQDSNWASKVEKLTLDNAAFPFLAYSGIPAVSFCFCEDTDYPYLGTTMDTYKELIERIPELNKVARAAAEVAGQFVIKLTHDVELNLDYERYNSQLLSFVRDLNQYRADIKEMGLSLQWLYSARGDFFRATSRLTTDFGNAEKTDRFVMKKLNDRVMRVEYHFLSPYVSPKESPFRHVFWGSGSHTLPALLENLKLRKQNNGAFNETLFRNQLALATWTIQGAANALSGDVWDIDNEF

Kd: 0.536 nM
kon: 774000 M⁻¹ s⁻¹
Substance: OKT9 (antibody)
